The target of assay [1] is miRFP670nano-DEVD-miRFP720 FRET-based reporter for caspase-3 activity (… SEQUENCE).
The target of assay [2] is NIR PKA biosensor (… SEQUENCE).
Assay [3] concerns the target NIR JNK biosensor (… SEQUENCE).

The record followed here is patent publication US12134634B2.

Take “caspase-3 (from UniProt P42574) (enzyme)”: the FRET/miRFP670nano fluorescence ratio detected at 725 nm/667 nm in assay [1] was 1.65 fold. Protein Kinase A (PKA) (enzyme): the FRET/miRFP670nano fluorescence ratio in assay [2] came out at 33%. With c-Jun N-terminal kinase (JNK) (enzyme), the FRET/miRFP670nano fluorescence ratio in assay [3] stood at 35%.
